Target: clade B MN gp41 monomer (HIV-1 clade B, strain MN) (UniProt P05877)
Assay: endpoint ELISA, plate-coated MN gp41

UniProt P05877, sequence (P05877 514-856 limits assumed): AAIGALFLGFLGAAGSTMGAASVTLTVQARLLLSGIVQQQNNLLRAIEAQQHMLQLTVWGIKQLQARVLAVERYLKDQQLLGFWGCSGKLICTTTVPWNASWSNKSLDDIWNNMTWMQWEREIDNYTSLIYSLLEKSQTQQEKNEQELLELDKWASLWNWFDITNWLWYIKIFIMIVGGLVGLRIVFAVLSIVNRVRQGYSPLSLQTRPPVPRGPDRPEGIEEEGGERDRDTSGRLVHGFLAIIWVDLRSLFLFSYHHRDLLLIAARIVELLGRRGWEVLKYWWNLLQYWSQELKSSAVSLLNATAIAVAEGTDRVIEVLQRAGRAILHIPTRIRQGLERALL

Question: For 240-D (antibody), which endpoint titer is on record?
Answer: Its endpoint titer is 78.1 ng/mL.

Reference: patent US20220154170A1
